Assay results reported in patent US20240117018A1.

What was measured:
Test in all cases: cell-based or functional assay
[1] = biological target: HIV-1 Env of pseudovirus 6244_13_B5_4576 (HIV-1)
[2] = biological target: HIV-1 Env of pseudovirus CNE21 (HIV-1)
[3] = biological target: HIV-1 Env of pseudovirus ZM249M.PL1 (HIV-1)
[4] = biological target: HIV-1 Env of pseudovirus Ce0682_E4 (HIV-1)
[5] = biological target: HIV-1 Env of pseudovirus 7030102001E5(Rev-) (HIV-1)
[6] = biological target: HIV-1 Env of pseudovirus 1056_10_TA11_1826 (HIV-1)
[7] = biological target: HIV-1 Env of pseudovirus Ce703010054_2A2 (HIV-1)
[8] = biological target: HIV-1 Env of pseudovirus CAAN5342.A2 (HIV-1)
[9] = biological target: HIV-1 Env of pseudovirus 1006_11_C3_1601 (HIV-1)
[10] = biological target: HIV-1 Env of pseudovirus CAP45.2.00.G3 (HIV-1)
[11] = biological target: HIV-1 Env of pseudovirus 6240_08_TA5_4622 (HIV-1)
[12] = biological target: HIV-1 Env of pseudovirus SC05_8C11_2344 (HIV-1)
[13] = biological target: HIV-1 Env of pseudovirus BF1266.431a (HIV-1)
[14] = biological target: HIV-1 Env of pseudovirus 1054_07_TC4_1499 (HIV-1)
[15] = biological target: HIV-1 Env of pseudovirus CNE58 (HIV-1)
[16] = biological target: HIV-1 Env of pseudovirus SC422661.8 (HIV-1)
[17] = biological target: HIV-1 Env of pseudovirus Ce1172_H1 (HIV-1)
[18] = biological target: HIV-1 Env of pseudovirus 246F C1G (HIV-1)
[19] = biological target: HIV-1 Env of pseudovirus HIV-16845-2.22 (HIV-1)
[20] = biological target: HIV-1 Env of pseudovirus CNE5 (HIV-1)
[21] = biological target: HIV-1 Env of pseudovirus Ce0393_C3 (HIV-1)
[22] = biological target: HIV-1 Env of pseudovirus RHPA4259.7 (HIV-1)
[23] = biological target: HIV-1 Env of pseudovirus Q461.e2 (HIV-1)
[24] = biological target: HIV-1 Env of pseudovirus 1394C9G1(Rev-) (HIV-1)
[25] = biological target: HIV-1 Env of pseudovirus Q842.d12 (HIV-1)
[26] = biological target: HIV-1 Env of pseudovirus HIV-16055-2.3 (HIV-1)
[27] = biological target: HIV-1 Env of pseudovirus Du422.1 (HIV-1)
[28] = biological target: HIV-1 Env of pseudovirus 62357_14_D3_4589 (HIV-1)
[29] = biological target: HIV-1 Env of pseudovirus TRJO4551.58 (HIV-1)
[30] = biological target: HIV-1 Env of pseudovirus CNE19 (HIV-1)
[31] = biological target: HIV-1 Env of pseudovirus CNE20 (HIV-1)
[32] = biological target: HIV-1 Env of pseudovirus HIV-001428-2.42 (HIV-1)
[33] = biological target: HIV-1 Env of pseudovirus ZM197M.PB7 (HIV-1)
[34] = biological target: HIV-1 Env of pseudovirus 6535.3 (HIV-1)
[35] = biological target: HIV-1 Env of pseudovirus Q23.17 (HIV-1)

PGT151 (antibody) showed a neutralization IC50 [1] of over 50 µg/mL, a neutralization IC80 [1] of over 50 µg/mL and a neutralization IC50 [2] of 0.004 µg/mL. For the same substance, the neutralization IC80 [2] was 0.012 µg/mL, the neutralization IC50 [3] was 0.004 µg/mL and the neutralization IC80 [3] was 0.015 µg/mL. The neutralization IC50 [4] was over 50 µg/mL, the neutralization IC80 [4] was over 50 µg/mL and the neutralization IC50 [5] was 0.001 µg/mL. It also gave a neutralization IC80 [5] of 0.011 µg/mL, a neutralization IC50 [6] of 0.008 µg/mL and a neutralization IC80 [6] of 0.048 µg/mL. The neutralization IC50 [7] was 0.013 µg/mL, the neutralization IC80 [7] was 0.075 µg/mL and the neutralization IC50 [8] was 0.005 µg/mL. The neutralization IC80 [8] was 0.038 µg/mL, the neutralization IC50 [9] was 2.89 µg/mL and the neutralization IC80 [9] was over 50 µg/mL. It also gave a neutralization IC50 [10] of 0.007 µg/mL, a neutralization IC80 [10] of over 50 µg/mL and a neutralization IC50 [11] of 0.046 µg/mL. It also gave a neutralization IC80 [11] of 0.42 µg/mL, a neutralization IC50 [12] of 0.06 µg/mL and a neutralization IC80 [12] of over 50 µg/mL. It also gave a neutralization IC50 [13] of over 50 µg/mL, a neutralization IC80 [13] of over 50 µg/mL and a neutralization IC50 [14] of 0.008 µg/mL. For the same substance, the neutralization IC80 [14] was 0.032 µg/mL, the neutralization IC50 [15] was 0.004 µg/mL and the neutralization IC80 [15] was 0.016 µg/mL. The neutralization IC50 [16] was 0.005 µg/mL, the neutralization IC80 [16] was 0.028 µg/mL and the neutralization IC50 [17] was over 50 µg/mL. For the same substance, the neutralization IC80 [17] was over 50 µg/mL, the neutralization IC50 [18] was over 50 µg/mL and the neutralization IC80 [18] was over 50 µg/mL. The neutralization IC50 [19] was over 50 µg/mL, the neutralization IC80 [19] was over 50 µg/mL and the IC50 (Titer in TZM.bl cells) [20] was over 50 µg/mL. The IC80 (Titer in TZM.bl cells) [20] was over 50 µg/mL, the neutralization IC50 [21] was over 50 µg/mL and the neutralization IC80 [21] was over 50 µg/mL. The neutralization IC50 [22] was 0.006 µg/mL, the neutralization IC80 [22] was 0.033 µg/mL and the neutralization IC50 [23] was 12.6 µg/mL. It also gave a neutralization IC80 [23] of over 50 µg/mL, a neutralization IC50 [24] of 0.022 µg/mL and a neutralization IC80 [24] of 0.733 µg/mL. It also gave a neutralization IC50 [25] of 0.001 µg/mL, a neutralization IC80 [25] of 0.014 µg/mL and a neutralization IC50 [26] of 0.143 µg/mL. For the same substance, the neutralization IC80 [26] was over 50 µg/mL, the neutralization IC50 [27] was 4.6 µg/mL and the neutralization IC80 [27] was over 50 µg/mL. For the same substance, the neutralization IC50 [28] was 0.004 µg/mL, the neutralization IC80 [28] was 0.023 µg/mL and the neutralization IC50 [29] was 0.496 µg/mL. For the same substance, the neutralization IC80 [29] was 4.22 µg/mL, the neutralization IC50 [30] was 0.014 µg/mL and the neutralization IC80 [30] was over 50 µg/mL. For the same substance, the neutralization IC50 [31] was over 50 µg/mL, the neutralization IC80 [31] was over 50 µg/mL and the neutralization IC50 [32] was 0.027 µg/mL. For the same substance, the neutralization IC80 [32] was over 50 µg/mL, the neutralization IC50 [33] was 0.003 µg/mL and the neutralization IC80 [33] was 0.033 µg/mL. For the same substance, the neutralization IC50 [34] was under 0.001 µg/mL, the neutralization IC80 [34] was 0.012 µg/mL and the neutralization IC50 [35] was 0.007 µg/mL. For the same substance, the neutralization IC80 [35] was 0.045 µg/mL.
PGT128 (antibody) was tested, and the neutralization IC50 [1] was 0.02 µg/mL, the neutralization IC80 [1] was 0.076 µg/mL and the neutralization IC50 [2] was 0.01 µg/mL. For the same substance, the neutralization IC80 [2] was 0.026 µg/mL, the neutralization IC50 [3] was 39.7 µg/mL and the neutralization IC80 [3] was over 50 µg/mL. The neutralization IC50 [4] was over 50 µg/mL, the neutralization IC80 [4] was over 50 µg/mL and the neutralization IC50 [5] was 0.007 µg/mL. For the same substance, the neutralization IC80 [5] was 0.022 µg/mL, the neutralization IC50 [6] was under 0.001 µg/mL and the neutralization IC80 [6] was 0.008 µg/mL. The neutralization IC50 [7] was over 50 µg/mL, the neutralization IC80 [7] was over 50 µg/mL and the neutralization IC50 [8] was 0.514 µg/mL. It also gave a neutralization IC80 [8] of over 50 µg/mL, a neutralization IC50 [9] of 0.011 µg/mL and a neutralization IC80 [9] of 0.04 µg/mL. It also gave a neutralization IC50 [10] of over 50 µg/mL, a neutralization IC80 [10] of over 50 µg/mL and a neutralization IC50 [11] of 0.019 µg/mL. The neutralization IC80 [11] was 0.055 µg/mL, the neutralization IC50 [12] was 0.017 µg/mL and the neutralization IC80 [12] was 0.041 µg/mL. The neutralization IC50 [13] was over 50 µg/mL, the neutralization IC80 [13] was over 50 µg/mL and the neutralization IC50 [14] was 0.035 µg/mL. It also gave a neutralization IC80 [14] of 0.312 µg/mL, a neutralization IC50 [15] of 13.8 µg/mL and a neutralization IC80 [15] of over 50 µg/mL. For the same substance, the neutralization IC50 [16] was 1.08 µg/mL, the neutralization IC80 [16] was 18.4 µg/mL and the neutralization IC50 [17] was 0.013 µg/mL. For the same substance, the neutralization IC80 [17] was 0.038 µg/mL, the neutralization IC50 [18] was 0.005 µg/mL and the neutralization IC80 [18] was 0.014 µg/mL. For the same substance, the neutralization IC50 [19] was 0.181 µg/mL, the neutralization IC80 [19] was 0.834 µg/mL and the IC50 (Titer in TZM.bl cells) [20] was 0.018 µg/mL. It also gave an IC80 (Titer in TZM.bl cells) [20] of 0.253 µg/mL, a neutralization IC50 [21] of over 50 µg/mL and a neutralization IC80 [21] of over 50 µg/mL. For the same substance, the neutralization IC50 [22] was 0.026 µg/mL, the neutralization IC80 [22] was 0.109 µg/mL and the neutralization IC50 [23] was over 50 µg/mL. For the same substance, the neutralization IC80 [23] was over 50 µg/mL, the neutralization IC50 [24] was 0.011 µg/mL and the neutralization IC80 [24] was 0.034 µg/mL. For the same substance, the neutralization IC50 [25] was 0.008 µg/mL, the neutralization IC80 [25] was 0.102 µg/mL and the neutralization IC50 [26] was over 50 µg/mL. It also gave a neutralization IC80 [26] of over 50 µg/mL, a neutralization IC50 [27] of 0.039 µg/mL and a neutralization IC80 [27] of 0.113 µg/mL. For the same substance, the neutralization IC50 [28] was 1.14 µg/mL, the neutralization IC80 [28] was over 50 µg/mL and the neutralization IC50 [29] was 0.018 µg/mL. It also gave a neutralization IC80 [29] of 0.041 µg/mL, a neutralization IC50 [30] of over 50 µg/mL and a neutralization IC80 [30] of over 50 µg/mL. For the same substance, the neutralization IC50 [31] was 0.001 µg/mL, the neutralization IC80 [31] was 0.004 µg/mL and the neutralization IC50 [32] was 0.026 µg/mL. The neutralization IC80 [32] was 0.095 µg/mL, the neutralization IC50 [33] was over 50 µg/mL and the neutralization IC80 [33] was over 50 µg/mL. It also gave a neutralization IC50 [34] of 0.004 µg/mL, a neutralization IC80 [34] of 0.016 µg/mL and a neutralization IC50 [35] of 0.009 µg/mL. For the same substance, the neutralization IC80 [35] was 0.024 µg/mL.
